According to US11260115B1, “Peptides and combination of peptides for use in immunotherapy against CLL and other cancers” (immatics biotechnologies GmbH, priority 2015, dated 2022):

Molecular target: HLA-A*02:01 (Homo sapiens, UniProt P04439, D140Y/D185E/D98H/E176V/E277Q/G131W/G231S/I119V/I121R/I166T/I218V/L300P/L318F/N151K/N90K/P208A/P217A/Q86G/Q94H/R138H/R169H/T345S)
Assay: MHC binding assay (UV-ligand exchange, β2m ELISA, peptide exchange yield)
Conditions: binding to HLA-A*02:01
From the text: Candidate peptides for T cell based therapies according to the present invention were further tested for their MHC binding capacity (affinity). The individual peptide-MHC complexes were produced by UV-ligand exchange, where a UV-sensitive peptide is cleaved upon UV-irradiation, and exchanged with the peptide of interest as analyzed. Only peptide candidates that can effectively bind and stabilize the peptide-receptive MHC molecules prevent dissociation of the MHC complexes. To determine the yield of the exchange reaction, an ELISA was performed based on the detection of the light chain (β2m) of stabilized MHC complexes. The assay was performed as generally described in Rodenko et al. (Rodenko et al., 2006).
96 well MAXISorp plates (NUNC) were coated over night with 2 ug/ml streptavidin in PBS at room temperature, washed 4× and blocked for 1 h at 37° C. in 2% BSA containing blocking buffer. Refolded HLA-A*02:01/MLA-001 monomers served as standards, covering the range of 15-500 ng/ml. Peptide-MHC monomers of the UV-exchange reaction were diluted 100 fold in blocking buffer. Samples were incubated for 1 h at 37° C., washed four times, incubated with 2 ug/ml HRP conjugated anti-β2m for 1 h at 37° C., washed again and detected with TMB solution that is stopped with […]. Absorption was measured at 450 nm. Candidate peptides that show a high exchange yield (preferably higher than 50%, most preferred higher than 75%) are generally preferred for a generation and production of antibodies or fragments thereof, and/or T cell receptors or fragments thereof, as they show sufficient avidity to the MHC molecules and prevent dissociation of the MHC complexes.
Table 11: MHC class I binding scores. Binding of HLA-class I restricted peptides to HLA-A*02:01 was ranged by peptide exchange yield: ≥10%=+; ≥20%=++; ≥50=+++; ≥75%=++++

Row | Peptide Exchange (MHC class I binding score, peptide exchange yield) | Substance
1 | “+++” (>50 = +++) | 70 (FVPDTPVGV; listed as Homo sapiens) [compound 70]
2 | “+++” (>50 = +++) | 71 (GLKHDIARV; listed as Homo sapiens) [compound 71]
3 | “+++” (>50 = +++) | 72 (GLLDAGKMYV; listed as Homo sapiens) [compound 72]
4 | “+++” (>50 = +++) | 73 (GLLEVISALQL; listed as Homo sapiens) [compound 73]
5 | “++” (>20% = ++) | 74 (GLLRASFLL; listed as Homo sapiens) [compound 74]
6 | “++” (>20% = ++) | 75 (GLSIFAQDLRL; listed as Homo sapiens) [compound 75]
7 | “+++” (>50 = +++) | 76 (GLLRIIPYL; listed as Homo sapiens) [compound 76]
8 | “+++” (>50 = +++) | 78 (GLPSFLTEV; listed as Homo sapiens) [compound 78]
9 | “+++” (>50 = +++) | 79 (GLQAKIQEA; listed as Homo sapiens) [compound 79]
10 | “++” (>20% = ++) | 80 (VLIEDELEEL; listed as Homo sapiens) [compound 80]
11 | “+++” (>50 = +++) | 82 (GLQSGVDIGV; listed as Homo sapiens) [compound 82]
12 | “+++” (>50 = +++) | 83 (GQGEVLVYV; listed as Homo sapiens) [compound 83]
13 | “++” (>20% = ++) | 84 (GVMDVNTAL; listed as Homo sapiens) [compound 84]
14 | “++++” (>75% = ++++) | 85 (HLMLHTAAL; listed as Homo sapiens) [compound 85]
15 | “++” (>20% = ++) | 87 (HQIEAVDGEEL; listed as Homo sapiens) [compound 87]
16 | “+++” (>50 = +++) | 88 (ILDEIGADVQA; listed as Homo sapiens) [compound 88]
17 | “+++” (>50 = +++) | 89 (ILDFGTFQL; listed as Homo sapiens) [compound 89]
18 | “+++” (>50 = +++) | 90 (VIADLGLIRV; listed as Homo sapiens) [compound 90]
19 | “+++” (>50 = +++) | 91 (ILDLNTYNV; listed as Homo sapiens) [compound 91]
20 | “+++” (>50 = +++) | 92 (ILEPLNPLL; listed as Homo sapiens) [compound 92]
21 | “+++” (>50 = +++) | 93 (ILFNTQINI; listed as Homo sapiens) [compound 93]
22 | “+++” (>50 = +++) | 94 (ILFPLRFTL; listed as Homo sapiens) [compound 94]
23 | “++” (>20% = ++) | 95 (ILGYMAHEHKV; listed as Homo sapiens) [compound 95]
24 | “++” (>20% = ++) | 97 (LLFATQITL; listed as Homo sapiens) [compound 97]
25 | “+” (>10% = +) | 98 (SLIKYFLFV; listed as Homo sapiens) [compound 98]
26 | “+++” (>50 = +++) | 99 (ILIFHSVAL; listed as Homo sapiens) [compound 99]

Row | Peptide Exchange (MHC class I binding score, peptide exchange yield) | Substance
27 | “+++” (>50 = +++) | 100 (ILNNEVFAI; listed as Homo sapiens) [compound 100]
28 | “++” (>20% = ++) | 103 (KLGGTPAPA; listed as Homo sapiens) [compound 103]
29 | “+++” (>50 = +++) | 104 (KLILLDTPLFL; listed as Homo sapiens) [compound 104]
30 | “++” (>20% = ++) | 105 (KLMNDIADI; listed as Homo sapiens) [compound 105]
31 | “+++” (>50 = +++) | 106 (FMASHLDYL; listed as Homo sapiens) [compound 106]
32 | “+++” (>50 = +++) | 107 (ILYNLYDLL; listed as Homo sapiens) [compound 107]
33 | “+++” (>50 = +++) | 108 (VIYTLIHYI; listed as Homo sapiens) [compound 108]
34 | “+++” (>50 = +++) | 109 (KLWEGLTELV; listed as Homo sapiens) [compound 109]
35 | “+++” (>50 = +++) | 110 (LLFDHLEPMEL; listed as Homo sapiens) [compound 110]
36 | “+++” (>50 = +++) | 111 (KLWNVAAPLYL; listed as Homo sapiens) [compound 111]
37 | “+++” (>50 = +++) | 113 (KVPAEEVLVAV; listed as Homo sapiens) [compound 113]
38 | “+++” (>50 = +++) | 115 (LLFDKLYLL; listed as Homo sapiens) [compound 115]
39 | “+++” (>50 = +++) | 116 (LLIGATMQV; listed as Homo sapiens) [compound 116]
40 | “+++” (>50 = +++) | 117 (LLILENILL; listed as Homo sapiens) [compound 117]
41 | “+++” (>50 = +++) | 118 (RLLILENILL; listed as Homo sapiens) [compound 118]
42 | “+++” (>50 = +++) | 119 (VLPAEFFEV; listed as Homo sapiens) [compound 119]
43 | “+++” (>50 = +++) | 120 (AIDAALTSV; listed as Homo sapiens) [compound 120]
44 | “++++” (>75% = ++++) | 121 (RLYEITIEV; listed as Homo sapiens) [compound 121]
45 | “+++” (>50 = +++) | 122 (LLIPVVPGV; listed as Homo sapiens) [compound 122]
46 | “++” (>20% = ++) | 123 (LLLAEAELLTL; listed as Homo sapiens) [compound 123]
47 | “+++” (>50 = +++) | 124 (LLLEETEKQAV; listed as Homo sapiens) [compound 124]
48 | “+++” (>50 = +++) | 125 (LLLEIGEVGKLFV; listed as Homo sapiens) [compound 125]
49 | “+++” (>50 = +++) | 126 (LLPEGGITAI; listed as Homo sapiens) [compound 126]
50 | “+++” (>50 = +++) | 127 (LLPTAPTTV; listed as Homo sapiens) [compound 127]
51 | “+++” (>50 = +++) | 128 (LLSEEEYHL; listed as Homo sapiens) [compound 128]
